From PMC4325325

Tested on: RcsB
Experiment: EMSA

Row | Substance | K half [ng per 16 µL]
1 | lcrQ promoter | > 2000
2 | hmsC (hmsCDE/hmsD) promoter, wild-type RcsAAB box | 800
